Experiment [1] concerns the target T1, TGFβ receptor II (TβR2), R&D, coated on ELISA plate.
T1 construct: Bought protein (R&D), coated at 20 nM; also called TGFβRII; TβRII
Description: ELISA-like binding assay, receptor coated on plate, FITC fluorescence of bound peptide. An excerpt: We synthesized a peptide […]-FITC (PTβR2I), based on the sequence from a phage display library that binds specifically to […] and interactions between TβR2 and TGFβ1.63-65 We first examined the specific binding of PTβR2I with TβR2 using an ELISA-like binding assay. TGFβ receptor I (TβR1), TGFβ receptor III (TβR3), and IgG were used as controls. […] This finding was further validated on the cellular level. We used human dermal fibroblasts (HDFs) to study the binding affinity of PTβR2I to TβR2 under a glucose level of 4.5 g/L, which mimics the hyperglycemic conditions of diabetes. With PTβR2I added, the HDF binding sites on HDF of TβR2 were occupied, so the TβR2 could not be detected by immunofluorescence (FIG. 5F).
To test the ability of PTβR2I to bind to TβR2, a binding assay was performed. TβR1, TβR3, and IgG were used as controls. In brief, ELISA plates (Costar) were coated with 20 nM of TβR2 (R&D), TβR1 (R&D), or IgG (R&D) and incubated at 4° C. overnight. The plate was blocked with Tris-buffered Saline (TBS) containing 5% bovine serum albumin (BSA) for 1 hour. Then PTβR2I (0.5 μg/mL) was added to the plate and incubated for 2 hours. The fluorescence intensity was read by a microplate reader (Molecular Devices) with a predefined wavelength (excitation/emission=485/535 nm).
(In an ELISA, binding on a coated surface is turned into a signal by an enzyme label.)

Experiment [2] has as its target T2, TGFβ receptor II (TβR2) on human dermal fibroblasts (HDFs) (human, UniProt P37173 23-567).
T2 construct: whole, on cells; Endogenous receptor on HDFs cultured at 4.5 g/L glucose; also called TGFβRII
Put plainly: immunofluorescence of HDFs with anti-TβR2 antibody and FITC signal of the peptide.

Primed or numbered codes have the meaning given here. Ends that are not written are not given here. FITC′ = not defined here

T1 sequence (P37173 whole entry): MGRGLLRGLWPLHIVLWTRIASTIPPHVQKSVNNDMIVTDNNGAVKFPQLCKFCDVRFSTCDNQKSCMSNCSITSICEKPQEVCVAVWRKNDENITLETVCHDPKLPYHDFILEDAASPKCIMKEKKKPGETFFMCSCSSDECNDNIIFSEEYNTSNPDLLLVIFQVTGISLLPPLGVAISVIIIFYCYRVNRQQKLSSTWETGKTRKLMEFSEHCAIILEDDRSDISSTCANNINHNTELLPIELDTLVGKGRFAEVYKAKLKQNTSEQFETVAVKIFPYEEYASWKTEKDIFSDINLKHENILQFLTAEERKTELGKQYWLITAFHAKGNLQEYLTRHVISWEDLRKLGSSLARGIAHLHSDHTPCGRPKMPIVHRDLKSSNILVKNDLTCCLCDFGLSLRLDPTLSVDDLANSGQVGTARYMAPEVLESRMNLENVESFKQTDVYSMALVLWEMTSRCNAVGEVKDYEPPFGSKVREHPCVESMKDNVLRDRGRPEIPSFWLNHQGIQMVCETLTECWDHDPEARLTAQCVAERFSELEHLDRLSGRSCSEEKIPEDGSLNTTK
T2 sequence (P37173 23-567): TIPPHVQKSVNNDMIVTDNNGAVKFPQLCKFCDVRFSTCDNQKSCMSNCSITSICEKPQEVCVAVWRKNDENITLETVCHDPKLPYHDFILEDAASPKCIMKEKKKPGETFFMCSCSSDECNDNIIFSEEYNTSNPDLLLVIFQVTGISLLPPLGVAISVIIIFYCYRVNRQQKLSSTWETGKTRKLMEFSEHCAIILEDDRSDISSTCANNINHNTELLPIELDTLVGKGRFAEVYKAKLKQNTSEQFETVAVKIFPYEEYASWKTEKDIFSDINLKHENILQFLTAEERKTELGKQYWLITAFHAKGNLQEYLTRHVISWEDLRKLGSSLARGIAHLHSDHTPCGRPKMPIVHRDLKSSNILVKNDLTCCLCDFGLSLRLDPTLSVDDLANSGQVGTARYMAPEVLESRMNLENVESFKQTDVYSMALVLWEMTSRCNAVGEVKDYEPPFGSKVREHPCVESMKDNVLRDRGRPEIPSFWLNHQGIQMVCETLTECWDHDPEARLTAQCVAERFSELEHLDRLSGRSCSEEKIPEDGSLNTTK

As for ECGLLPVGRPDRVWRLCK-{FITC′} (cysteine pairing not given here) [peptide-based TGFβ receptor II inhibitor (PTβR2I), ECGLLPVGRPDRVWRLCK-FITC], in experiment [1], the Kd stood at 3.4 µM. Moreover, in experiment [2], the binding result is “binds”.

As a reminder, the Kd is the constant that tells how readily two partners part at equilibrium.
